This is an account of results in patent US20180312565A1 (Affibody, published 2018).

Assay [1] addresses T1, human PD-L1 Fc Chimera (R&D Systems, cat. no. 156-B7-100) (human, UniProt Q9NZQ7 19-239, biotinylated with Sulfo-NHS-LC-Biotin in ELISA and AlphaLISA; not biotinylated in SPR).
T1 construct: bought; also called hPD-L1; biotinylated hPD-L1; not shown: Fc part of the bought Fc chimera, not described
Put plainly: SPR capture assay, control.

Assay [2] concerns the target T2, PD-L1 on PD-L1 expressing cells (IFNg-stimulated THP-1 cells; MDA-MB-231 cells) (UniProt Q9NZQ7 19-290, limits assumed).
T2 construct: whole, on cells
The assay is described as follows: FACS, MDA-MB-231 cells, 0.625 µg/ml; negative control (buffer) 69. As for the experimental part: Cells incubated with buffer alone were used as negative controls. The cells were incubated for 1 h at 8° C. in the dark, washed twice with 100 μl staining buffer, and resuspended in 100 μl of staining buffer containing 2.5 μg/ml of a goat-anti-human IgG-Alexa488 (Molecular Probes, cat. no. A11013) or, for cells stained with the positive control antibody, goat anti-mouse IgG-Alexa647 antibody (Life Technologies, cat. No. A21236). The cells were incubated for 1 h at 8° C. in the dark, washed twice with 100 μl staining buffer and resuspended in 300 μl of staining buffer. Data from 10,000 cells were obtained using a FACS Calibur ([…]) and the data was analyzed using Flowing software 2.5.0 (Turku University). Mean fluorescence intensity (MFI) was used as a read out of binding capacity.

T2 sequence (Q9NZQ7 19-290 limits assumed): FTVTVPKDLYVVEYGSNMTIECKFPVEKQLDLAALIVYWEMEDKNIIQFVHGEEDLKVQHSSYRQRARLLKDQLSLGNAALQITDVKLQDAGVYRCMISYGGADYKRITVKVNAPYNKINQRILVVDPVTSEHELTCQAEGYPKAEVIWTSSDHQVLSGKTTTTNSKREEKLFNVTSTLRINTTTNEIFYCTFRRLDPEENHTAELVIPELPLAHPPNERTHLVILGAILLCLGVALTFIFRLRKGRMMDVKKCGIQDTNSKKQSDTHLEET
T1 sequence (Q9NZQ7 19-239, change not shown): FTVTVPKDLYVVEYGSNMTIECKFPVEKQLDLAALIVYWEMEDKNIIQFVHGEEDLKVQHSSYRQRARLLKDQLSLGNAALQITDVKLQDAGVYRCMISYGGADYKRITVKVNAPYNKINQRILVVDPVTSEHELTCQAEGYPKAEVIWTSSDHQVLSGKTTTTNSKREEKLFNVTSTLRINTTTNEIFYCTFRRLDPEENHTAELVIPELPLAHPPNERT

B1: Lam (PD-1 binding monoclonal antibody with the CDR sequences of pembrolizumab) (antibody, human IgG4 S228P, kappa, V domains shown)
VH: QVQLVQSGVEVKKPGASVKVSCKASGYTFTNYYMYWVRQAPGQGLEWMGGINPSNGGTNFNEKFKNRVTLTTDSSTTTAYMELKSLQFDDTAVYYCARRDYRFDMGFDYWGQGTTVTVSS
VL: EIVLTQSPATLSLSPGERATLSCRASKGVSTSGYSYLHWYQQKPGQAPRLLIYLASYLESGVPARFSGSGSGTDFTLTISSLEPEDFAVYYCQHSRDLPLTFGGGTKVEIKR
With B1, the binding result in assay [1] is “no binding (tested: 100 or 500 nM PD-L1)”.

B2: Z15170-HCLam (bispecific antibody)
heavy: not shown
light: EIVLTQSPATLSLSPGERATLSCRASKGVSTSGYSYLHWYQQKPGQAPRLLIYLASYLESGVPARFSGSGSGTDFTLTISSLEPEDFAVYYCQHSRDLPLTFGGGTKVEIKRTVAAPSVFIFPPSDEQLKSGTASVVCLLNNFYPREAKVQWKVDNALQSGNSQESVTEQDSKDSTYSLSSTLTLSKADYEKHKVYACEVTHQGLSSPVTKSFNRGEC
Turning to B2, the MFI in assay [2] is 161.

B3: HCLam-Z15170 (bispecific antibody)
heavy: not shown
light: B2 light
Regarding B3, in assay [2], the MFI is 274.

B4: ipilimumab (Yervoy, Bristol-Myers Squibb) (antibody, V domains shown)
VH: QVQLVESGGGVVQPGRSLRLSCAASGFTFSSYTMHWVRQAPGKGLEWVTFISYDGNNKYYADSVKGRFTISRDNSKNTLYLQMNSLRAEDTAIYYCARTGWLGPFDYWGQGTLVTVSS
VL: not shown
The molecule B4 came in with an MFI in assay [2] of 64.
